How the values were obtained:
[1] = biological target: T1, human PD-L1-Fc (SinoBiological) (human, UniProt Q9NZQ7 19-239); assay: BLI (Octet RED96), VHH on Penta-HIS sensor, human PD-L1-Fc in solution
T1 construct: Bought; not shown: Fc of a bought fusion protein

[2] = biological target: T2, recombinant extracellular domain of PD-L1 with C-terminal FLAG-tag (human, UniProt Q9NZQ7 19-238); assay: plate binding assay, VHH against hPD-1-hFc binding to immobilised PD-L1 ECD-FLAG
T2 construct: extracellular domain; The sentence itself names no species; Immobilised through the M2 anti-FLAG antibody; not shown: C-terminal FLAG-tag
T2 sequence (Q9NZQ7 19-238): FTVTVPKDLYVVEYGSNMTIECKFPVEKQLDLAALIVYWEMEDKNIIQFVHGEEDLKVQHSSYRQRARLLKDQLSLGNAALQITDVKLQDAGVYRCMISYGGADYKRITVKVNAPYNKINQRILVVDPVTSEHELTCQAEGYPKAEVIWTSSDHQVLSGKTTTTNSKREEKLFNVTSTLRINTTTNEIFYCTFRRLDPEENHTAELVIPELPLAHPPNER

[3] = biological target: T3, cynomolgus PD-L1-Fc (SinoBiological) (cynomolgus, UniProt G7PSE7 19-238); assay: BLI (Octet RED96), VHH on Penta-HIS sensor, cynomolgus PD-L1-Fc in solution
T3 construct: Bought; also called Cyno PD-L1; not shown: Fc carrier (and any linker) of the bought SinoBiological fusion
T3 sequence (G7PSE7 entry or part of it limits assumed): as the sequence (Q9NZQ7 19-238) above, with A33T, A34S, S62N, R68Q, Q82R, F173L, T185A, T192I, H215L counted along it

T1 sequence (Q9NZQ7 19-239 limits assumed): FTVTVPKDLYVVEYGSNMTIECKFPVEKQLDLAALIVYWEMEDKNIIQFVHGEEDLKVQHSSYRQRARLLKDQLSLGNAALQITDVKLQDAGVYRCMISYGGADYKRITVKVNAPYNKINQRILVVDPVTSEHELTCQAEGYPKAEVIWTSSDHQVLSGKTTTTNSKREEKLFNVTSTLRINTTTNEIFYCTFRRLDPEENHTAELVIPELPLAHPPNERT

Kd [1]	koff [1]	kon [1]	IC50 [2]	Kd [3]	koff [3]	kon [3]	Binder
3.03 nM	0.000524 s⁻¹	174000 M⁻¹ s⁻¹	8.81 ng/mL	3.8 nM	0.000437 s⁻¹	114000 M⁻¹ s⁻¹	2LIG189 VHH-(His)6 (pHEN6C-PelB-PD-L1 VHH-(His)6) (VHH) VHH: QVQLQESGGGLVQAGGSLRLSCAASGKIFSGNDMGWYRQAPGKQRELVGIITSGGITDYADAVKGRFTISRDNAKNMMYLQMNSLKPEDTAVYYCNMRDRTIWWGQGTQVTVSS
6.87 nM	0.00805 s⁻¹	1.18e+06 M⁻¹ s⁻¹	5.68 ng/mL	11.3 nM	0.00573 s⁻¹	508000 M⁻¹ s⁻¹	2LIG176 VHH-(His)6 (pHEN6C-PelB-PD-L1 VHH-(His)6) (VHH) VHH: QVQLQESGGGLVQAGGSLRLSCAASESIFSIEAMGWYRQAPGKQRELVAAIFGGGFTNYADSVKGRFTISRDNANRTVYLQMNSLKPEDTAVYYCNADLVSGSSRLYDYWGQGTQVTVSS
7.51 nM	0.0035 s⁻¹	472000 M⁻¹ s⁻¹	9.57 ng/mL	8.74 nM	0.0028 s⁻¹	321000 M⁻¹ s⁻¹	2LIG27 VHH-(His)6 (pHEN6C-PelB-PD-L1 VHH-(His)6) (VHH) VHH: QVQLQESGGGVVQAGGSLRLSCTASGTIFSINRMDWFRQAPGKQRELVALITSDGTPTYADSAKGRFTISRDNTKKTVSLQMNSLKPEDTAVYYCHVSSGVYNYWGQGTQVTVSS
8.77 nM	0.00419 s⁻¹	484000 M⁻¹ s⁻¹	12.8 ng/mL	5.98 nM	0.00305 s⁻¹	812000 M⁻¹ s⁻¹	3LIG8 VHH-(His)6 (pHEN6C-PelB-PD-L1 VHH-(His)6) (VHH) VHH: QVQLQESGGGLVQPGGSLRLSCTASGTIFSINRMDWFRQAPGKQRELVALITSDGTPTYADSAKGRFTISRDNTKKTVSLQMNSLKPEDTAVYYCHVSSGVYNYWGQGTQVTVSS
4.35 nM	0.00198 s⁻¹	423000 M⁻¹ s⁻¹	4.81 ng/mL	9.16 nM	0.00293 s⁻¹	319000 M⁻¹ s⁻¹	2LIG97 VHH-(His)6 (pHEN6C-PelB-PD-L1 VHH-(His)6) (VHH) VHH: QVQLQESGGGLVQAGESLRLSCTASGTIFSINRMDWFRQAPGKQRELVALITSDGTPTYADSAKGRFTISRDNTKKTVSLQMNSLKPEDTAVYYCHVSSGVYNYWGQGTQVTVSS
0.875 nM	0.000634 s⁻¹	729000 M⁻¹ s⁻¹	6.21 ng/mL	1.01 nM	0.000585 s⁻¹	584000 M⁻¹ s⁻¹	2LIG99 VHH-(His)6 (pHEN6C-PelB-PD-L1 VHH-(His)6) (VHH) VHH: QVQLQESGGGLVQAGGSLRLSCTASGTIFSINRMDWFRQAPGKQRELVALITSDGTPAYADSAKGRFTISRDNTKKTVSLQMNSLKPEDTAVYYCHVSSGVYNYWGQGTQVTVSS
1.19 nM	0.000448 s⁻¹	373000 M⁻¹ s⁻¹	18.9 ng/mL	0.89 nM	0.000318 s⁻¹	358000 M⁻¹ s⁻¹	2LIG3 VHH-(His)6 (pHEN6C-PelB-PD-L1 VHH-(His)6) (VHH) VHH: QVQLQESGGGLVQAGGSLRLSCTASGTIFSINHMDWFRQAPGKQRELVALITSDGFPTYADSAKGRFTISRDNTKKTVSLQMNSLKPEDTAVYYCHVSSGVYNYWGQGTQVTVSS

Source: patent US20250361305A1 (ORIONIS BIOSCIENCES, published 2025)
